Measured values published in patent publication WO2001094586A2 (dated 2001).

B1: humanized 24-31 antibody, version 1 (#1 VL with #1 VH) (antibody, V domains shown)
VH: EVQLQESGPGLVKPSETLSLTCTVSGDSITNGFWIWIRKPPGNKLEYMGYISYSGSTYYNPSLKSRISISRDTSKNQFSLKLSSVTAADTGVYYCACRSYGRTPYYFDFWGQGTTLTVSS
VL: DIVMTQSPSFLSASVGDRVTITCKASQNVITAVAWYQQKPGKSPKLLIYSASNRYTGVPDRFSGSGSGTDFTLTISSLQPEDFADYFCQQYNSYPYTFGGGTKLEIK
notes: also called IDEC131
B2: murine antibody 24-31 (anti-human gp39 monoclonal antibody) (antibody, V domains shown)
VH: EVQLQESGPSLVKPSQTLSLTCSVTGDSITNGFWIWIRKFPGNKLEYMGYISYSGSTYYNPSLKSRISITRDTSQNQFYLQLNSVTTEDTGTYYCACRSYGRTPYYFDFWGQGTTLTVSS
VL: DIVMTQSQKFMSTSVGDRVSITCKASQNVITAVAWYQQKPGQSPKLLIYSASNRYTGVPDRFSGSGSGTDFTLTISNMQSEDLADYFCQQYNSYPYTFGGGTKLEIK
notes: also called murine 24-31; anti-gp39 24-31 mAb
B3: humanized 24-31 antibody, version 2 (#2 VL with #1 VH) (antibody, V domains shown)
VH: EVQLQESGPGLVKPSETLSLTCTVSGDSITNGFWIWIRKPPGNKLEYMGYISYSGSTYYNPSLKSRISISRDTSKNQFSLKLSSVTAADTGVYYCACRSYGRTPYYFDFWGQGTTLTVSS
VL: DIVMTQSPDSLAVSLGERATINCKASQNVITAVAWYQQKPGQSPKLLIYSASNRYTGVPDRFSGSGSGTDFTLTISSLQAEDVADYFCQQYNSYPYTFGGGTKLEIK
notes: Built in the N5KG1 vector (human kappa and gamma 1 constant regions); also called humanized 24-31 version 2; humanized Version 2

Experiments:
[1] = molecular target: soluble fusion protein of human gp39 (gp39-CD8) (human) (UniProt P29965); assay: cell-based or functional assay
[2] = molecular target: T1, human gp39 (CD40 ligand), cell-surface (human, UniProt P29965 1-261); assay: cell-based or functional assay
T1 construct: whole, on cells; also called CD154; mgp39
T1 sequence (looked up): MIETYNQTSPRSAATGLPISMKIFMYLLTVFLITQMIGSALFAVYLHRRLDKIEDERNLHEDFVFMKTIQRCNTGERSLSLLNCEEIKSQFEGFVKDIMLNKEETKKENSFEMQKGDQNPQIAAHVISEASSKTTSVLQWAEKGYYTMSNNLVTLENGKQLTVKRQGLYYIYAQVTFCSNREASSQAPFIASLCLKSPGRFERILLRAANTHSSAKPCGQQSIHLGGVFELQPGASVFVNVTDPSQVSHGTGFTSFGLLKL

[3] = molecular target: T1, human gp39 (CD40 ligand), cell-surface; assay: Scatchard analysis, 125I-labelled antibody on gp39-CHO cells

| IL-2 production with TRAP-1 (30 ng/mL) and a 4:1 molar excess of soluble CD8-CD40L fusion protein [1] [pg/mL] | IL-2 production with immobilized anti-CD3 (10 ng/mL) [2] [pg/mL] | Kd [3] [nM] | Molecule |
| --- | --- | --- | --- |
| 1500 | > 4600 |  | TRAP-1, commercial murine anti-CD40L antibody |
|  |  | 5.6 | B1 |
|  |  | 8.51 | B2 |
|  |  | 14 | B3 |
